4 molecules from patent publication US20210188980A1 (SHANGHAI EPIMAB BIOTHERAPEUTICS, published 2021) can be followed below.

Where a chain is given by its changes, count along the chain named.

The labels stand for the following.
B1: mAb749 (antibody, V domains shown)
VH: EVQLQQSGAELVRPGASVKVSCTASDFNIKDDYVHWVKQRPEQGLEWIGWIDPENGDTEYASKFQGKATITADTSSNTAYLQLSSLTSEDTAVYFCSTWDAEENYWGQGTTLSVSS
VL: DIVLTQAAPSVPVTPGESVSISCRSSKSLLHSNGNTYLYWFLQRPGQSPQVLIYRMSNLASGVPVRFSGSGSGTAFTLRISRVEAEDVGVYYCMQHLEYPFTFGSGTKLEIK
notes: murine hybridoma anti-LAG-3 mAb
B2: mAb746 (antibody, V domains shown)
VH: EVQLQQSGAELVRPGASVKLSCTASDFNIKDDYMHWVKQRPEQGLDWIGWIVPENGNTEYASKFQGKATITADTSSNTAYLQLSSLTSEDTAVYYCTVYGDYWGQGTTLTVSS
VL: DIQMTQSPSSLSASLGERVSLNCRASQEISGYLSWLQQKSDGTIKRLIYAASTLDSGVPKRFSGSRSGSDYSLTISSLESEDFADYYCLQYASYPLTFGAGTKLELK
notes: murine hybridoma anti-LAG-3 mAb; also called rnAb746; 3502-mAb746
B3: mAb747 (antibody, V domains shown)
VH: B2 VH
VL: B2 VL with S40P, D85A
notes: murine hybridoma anti-LAG-3 mAb; also called 3502-mAb747
B4: mAb750 (antibody, V domains shown)
VH: EVQLQQSGAELVRPGASVKLSCTPSGLNIKDDYIHWVKQRPEQGLEWIGWIDPENGDTEYASKFQGKATITADTSSNTAYLQLSSLTSEDSAVYYCCTADYRNWYWGQGTTLTVSS
VL: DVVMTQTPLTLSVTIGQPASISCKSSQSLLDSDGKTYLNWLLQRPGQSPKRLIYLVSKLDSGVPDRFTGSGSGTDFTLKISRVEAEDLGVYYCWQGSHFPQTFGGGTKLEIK
notes: as for B1

The first experiment concerns the target T1, human LAG-3 expressed on cells (human, UniProt P18627 23-525).
T1 sequence (looked up): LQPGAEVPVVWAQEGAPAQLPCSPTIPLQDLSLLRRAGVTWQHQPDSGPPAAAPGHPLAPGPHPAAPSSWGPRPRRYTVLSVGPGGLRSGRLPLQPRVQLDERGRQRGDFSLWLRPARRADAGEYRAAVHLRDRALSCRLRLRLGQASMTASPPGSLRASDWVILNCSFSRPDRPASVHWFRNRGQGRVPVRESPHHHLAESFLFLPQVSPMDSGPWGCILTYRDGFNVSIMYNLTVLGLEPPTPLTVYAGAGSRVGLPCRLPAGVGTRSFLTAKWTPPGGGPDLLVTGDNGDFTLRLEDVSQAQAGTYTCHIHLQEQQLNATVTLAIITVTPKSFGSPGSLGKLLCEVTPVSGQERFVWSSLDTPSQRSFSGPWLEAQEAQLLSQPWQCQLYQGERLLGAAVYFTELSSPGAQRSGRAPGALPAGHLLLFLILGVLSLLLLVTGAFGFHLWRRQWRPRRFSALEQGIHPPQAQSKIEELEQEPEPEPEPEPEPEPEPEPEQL
Description: cell-based or functional assay.
Turning to B1, the “Max IL-2” value came to 513 pg/mL.
As to B2, the “Antigen-dependent Activation, Mouse IL-2, EC50” value was found to be 1.28 nM and the “Max IL-2” value was determined as 654 pg/mL.
The matching figures for B3: 1.27 nM and 729 pg/mL.
As for B4, the “Max IL-2” value turned out to be 552 pg/mL.

The target in the next experiment is T2, human LAG-3 ECD/Fc fusion protein (human).
T2 construct: also called HuLAG-3 ECD/Fc
In words: ELISA, coated huLAG-3 ECD/Fc. On the procedure: The supernatants of hybridoma clones were primarily screened by ELISA. Briefly, 50 μl/well of […] human LAG-3 ECD/Fc in NaHCO₃ were directly coated in each well of 96-well plate overnight. Plates were washed 3 times with 1×PBST, 300 μl per well. After blocking with 1% BSA in PBST at 250 μl per well and incubating at room temperature for 1 hour, the hybridoma supernatants were added at 50 μl per well and incubated at 37° C. for 1 hour. After washing, an HRP-linked goat anti-mouse IgG Fc secondary antibody (Cat. No. A0168, Sigma) was added at 100 μl/well and the plates were incubated at room temperature for 1 hour. TMB reagent (InnoReagents) was used to detect and develop the ELISA signal at 100 μl/well for 15 minutes, the reaction was stopped with 1 Normal HCL. The plates were read with a plate reader (SpectraMax® M5e, Molecular Devices, USA) at a wavelength of 450 nm. The ELISA-positive antibody producer clones were further verified by FACS analysis using methods similar to Example 1.4, above, except that stable HEK 293F cell lines expressing either human LAG-3 or cynomolgus LAG-3 were used. Hybridomas producing LAG-3 binding activity were selected and further characterized in a receptor blocking assay (RBA).
A binding ELISA was performed in the same way as described in Example 7.2 above. Each purified antibody was 10-fold serially diluted. After blocking of a 96-well assay plate with wells containing immobilized LAG-3 ECD/Fc fusion protein targets, the purified antibody samples with diluted concentrations were added to wells of the assay plate. The HRP-linked anti-mouse IgG antibody (A0168, Sigma) and TMB reagent were used to detect and develop the ELISA signal, which were read on a SpectraMax M5e plate reader at wavelength of 450 nm. Curves were fitted using GraphPad software, and EC50 values were calculated. Similarly, a RBA was also performed as described in Example 7.3 with titrated, purified antibodies, and maximum inhibition percentages and IC50 values were determined.
Molecule B1 showed an EC50 of 0.55 nM.
In turn, B2 displayed an EC50 of 0.31 nM.
On to B3, for which it took 0.25 nM to reach a half-maximal effect (EC50).
The same measure, in the same setting: with B4 the figure was 0.25 nM.

A further experiment has as its target T1, human LAG-3 expressed on cells. In words: FACS, HEK 293F huLAG-3 cells. On the procedure: (§1) FAGS analysis was performed using methods similar to Example 1.4, above, except that stable HEK 293F cell lines expressing either human LAG-3 cynomolgus LAG-3 were used. LAG-3 expressing cells were charged at 2×10⁴ cell per well into 96-well assay round-bottomed assay plates (Cat. No. 3799; Corning) and stained with purified anti-LAG-3 antibodies. LAG-3 antibodies were detected with AlexaFluor® Donkey anti-Mouse Ig (H+L) Highly Cross-Adsorbed Secondary Antibody (Cat. No. A21202; Invitrogen), and cell fluorescence was monitored using a flow cytometer. The data were processed by GraphPad software, and EC50 values were calculated.
Molecule B1 displayed an EC50 of 3.3 nM and a Max-MFI of 124 MFI.
The matching figures for B2: 13 nM and 121 MFI.
Take B3: the response was half-maximal at 1.1 nM (EC50) and the Max-MFI was found to be 104 MFI.
Molecule B4 displayed an EC50 of 24.1 nM and a Max-MFI of 88.7 MFI.

Another experiment concerns the target T3, cynomolgus LAG-3 expressed on HEK 293F cells (cynomolgus).
T3 construct: whole, on cells
Description: FACS, HEK 293F cynoLAG-3 cells. On the procedure: as §1
Take B1: the EC50 came out at 14.3 nM and the Max-MFI came to 67.4 MFI.
The corresponding values for B2 are 4.1 nM and 66.2 MFI.
The matching figures for B3: 3.1 nM and 65.2 MFI.
The corresponding values for B4 are 114 nM and 36.7 MFI.

The next experiment concerns the target LAG-3 antigen (Biacore analyte of Example 7.7). Description: SPR Biacore T200, mAb captured, LAG-3 antigen analyte. On the procedure:
For antibodies with high binding affinity in ELISA and FACS assays, as well as potent functional activity, binding affinities were determined based on measurement of binding kinetic constants in real time binding reactions using Biacore surface plasmon resonance. Briefly, the binding assay of antibody to antigen was performed using a Biacore T200 system through an antibody capture approach. Anti-mouse IgG Fc antibody was immobilized on a CM5 sensor chip according to the manufacturer's instructions. The test anti-LAG-3 murine monoclonal antibody was injected and captured by the immobilized anti-mouse IgG Fc. Then serial concentrations of LAG-3 antigen were individually injected, and the binding profile was recorded for each concentration of antigen analyte. The assay temperature was 25° C., and the association and dissociation times were 180 and 1200 seconds, respectively. The Biacore data were fitted using Biacore T200 evaluation software 1.0 according to a 1:1 binding model to calculate the association (kₒₙ) and dissociation (koff) rate constants and from these calculations the equilibrium dissociation constant (KD) was determined.
Turning to B1, the affinity, expressed as Kd, was 189 nM.
On the same count and under the same terms, in the case of B2 it was 37.7 nM.
The same measure, in the same setting: with B3 the figure was 52 nM.
On the same count and under the same terms, with B4 the figure was 75.1 nM.

The next experiment addresses T2, human LAG-3 ECD/Fc fusion protein. In words: FACS RBA, huLAG-3 ECD/Fc on Raji; competitor MHC Class II. On the procedure: Supernatants displaying LAG-3 specific activity were tested for the ability to block LAG-3 receptor binding to MHC Class II. Raji human B cell lymphoblasts express high levels of MCH Class II and were used as binding targets for LAG-3 ECD/Fc proteins described above. Briefly, Raji cells were harvested and resuspend in FACS buffer and plated in 96-well plates (2×10⁵ cells/well). Anti-LAG-3 hybridoma supernatants were mixed with soluble LAG-3 ECD/Fc and the mixture was added to wells at a final volume of 100 μl/well. After adding the mixture to cells, the plates were incubated at room temperature for 30 minutes. After washing twice with PBS, the cells were incubated with anti-human IgG Alexa Fluor® 488 secondary antibody at 4° C. for 1 hour, washed twice with PBS, then fluorescence was measured on a flow cytometer.
Purified anti-LAG-3 antibodies also were tested in a RBA in the same manner as described in Example 7.3. Antibodies were also tested in an antigen-specific T cell activation assay, as follows: A huLAG-3 expressing murine T hybridoma cell line was generated to order by ChemPartner (Shanghai, CN). Mouse splenocytes from the same strain of mice were used as effector cells. The hybridoma expressing the huLAG-3 receptor protein is capable of binding to MHC Class II-positive mouse splenocytes, with inhibitory effect via engagement of Class II. The assay tests for anti-LAG-3 antibody-mediated reversal of the inhibitory effect, as measured by increased production of IL-2. Mouse spleenocytes were harvested from 6-8 week-old female C57BL/6 mice, red blood cells were lysed using Red Blood Cell Lysis Buffer (Sigma-Aldrich; R7757) according to the maker's instructions. Next, 50 μl T hybridoma-huLAG-3 cells (2×10⁶ cells/ml) were seeded in each well of a 96-well culture plate, and then a series of anti-LAG-3 monoclonal antibodies in solution at 50 μl/well were added and incubated at 37° C. for 30 min. Mouse splenocytes (4×10⁶ cells/ml) and the antigen (20 μg/ml) were mixed and incubated at 37° C. for 30 min. The mixture (100 μl/well) was added into each well that was already seeded with T hybridoma-huLAG-3 cells and anti-LAG-3 mAbs. The mixture of antibodies, T hybridoma-huLAG-3 cells, mouse splenocytes, and the antigen was cultured for 3 days.
As for B1, the IC50 came to 4.73 nM and the “Max. Inhib. (%)” value came to 93.9%.
The corresponding values for B2 are 2.92 nM and 96.2%.
Turning to B3, the IC50 amounted to 2.84 nM and the “Max. Inhib. (%)” value is 96.3%.
For B4, the IC50 is 7.15 nM and the “Max. Inhib. (%)” value was 96.6%.
